“And” between values parts separate entries of the source, which are not always exact repeats. Equal entries are not always repeated.
Target: GLP-1 receptor
Assay: cell-based or functional assay

Val^8-Trp^16-Glu^22-Val^25-GLP-1(7-37)OH (peptide)
GLP-1 Receptor Activation (fold of GLP-1(7-37)OH): 2.07

Val^8-Trp^16-Glu^22-Ile^33-GLP-1(7-37)OH (peptide)
GLP-1 Receptor Activation (fold of GLP-1(7-37)OH): 1.93

Gly^8-GLP-1-IgG1 (from UniProt P01857 99-330) (Fc fusion)
In Vitro Activity (% of Val^8-GLP-1) (% of Val^8-GLP-1): 3.3

Val^8-Glu^22-Val^25-Ile^33-GLP-1(7-37)OH (peptide)
GLP-1 Receptor Activation (fold of GLP-1(7-37)OH): 2.3 and 2.73 and 3.15

Val^8-Lys^33-Asn^34-GLP-1(7-37)OH (peptide)
GLP-1 Receptor Activation (fold of GLP-1(7-37)OH): 0.09

From patent publication US20040053370A1
